The values below come from PMC12460815.

Values joined by “and” are separate entries in the source; they are usually repeats but may differ in a detail not shown here. Identical values can stand only once.

The target in assay [1] is recombinant Ser 255 mutation FGF2 (UniProt P09038). Briefly: gel electrophoresis under non-denaturing conditions; recombinant FGF2 under non-denaturing conditions, compared with denaturation at 95 °C.
The target in assay [2] is recombinant wild-type FGF2 (UniProt P09038). The description is as above.

Consider “recombinant Ser 255 mutation FGF2 (from UniProt P09038 1-288) (natural protein)”, for which, in assay [1], the stoichiometry N is 2 and 4.

On to “recombinant wild-type FGF2 (from UniProt P09038 1-288) (natural protein)”, for which the stoichiometry N in assay [2] was 2 and 4.
